Test results published in publication PMC9351455.

Assay: 35S pulse-chase, HA immunoprecipitation from lysate and media
Conditions: glycan lost; control: wild type Cab45-HA

B1: Cab45: Cab45-N40G (protein)
parent chain: MVWPWVAMASRWGPLIGLAPCCLWLLGAVLLMDASARPANHSSTRERVANREENEILPPDHLNGVKLEMDGHLNRGFHQEVFLGKDLGGFDEDAEPRRSRRKLMVIFSKVDVNTDRKISAKEMQRWIMEKTAEHFQEAMEESKTHFRAVDPDGDGHVSWDEYKVKFLASKGHSEKEVADAIRLNEELKVDEETQEVLENLKDRWYQADSPPADLLLTEEEFLSFLHPEHSRGMLRFMVKEIVRDLDQDGDKQLSVPEFISLPVGTVENQQGQDIDDNWVKDRKKEFEELIDSNHDGIVTAEELESYMDPMNEYNALNEAKQMIAVADENQNHHLEPEEVLKYSEFFTGSKLVDYARSVHEEF
With B1 the expression_or_secretion was “no change”.
